# According to the RNAGym collection of RNA variant scans (doi:10.1093/molbev/msab373):
# B1: Azoarcus group I ribozyme (parent)
# chain: GUGCCUUGCGCCGGGAAACCACGCAAGGGAUGGUGUCAAAUUCGGCGAAACCUAAGCGCCCGCCCGGGCGUAUGGCAACGCCGAGCCAAGCUUCGGCGCCUGCGCCGAUGAAGGUGUAGAGACUAGACGGCACCCACCUAAGGCAAACGCUAUGGUGAAGGCAUAGUCCAGGGAGUGGCGAAAGUCACACAAACCGG
# Variants of: B1
# Experiment: reverse-splicing fitness (ratio to wild type); higher = more active; in vitro selection; Mg2+ level not given
# Procedure, shortened: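 An in vitro group I ribozyme library with randomized positions was T7-transcribed and gel-purified. In triplicate, 10 pmol RNA in EPPS pH 7.5 was reacted with 50 pmoles of a 30-nt RNA substrate for 1 h at 37 °C across several added MgCl2 levels (1–48 mM), then stopped with EDTA. Products were reverse transcribed from a substrate-complementary primer, PCR-amplified and sequenced (HiSeq 4000). Fitness is a variant's read proportion after selection over that before, normalised to wild type.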
row,Variant,reverse-splicing fitness
1,C82A A111G A120U A145U C150G C169A U176A,0.0039
2,C82A A111G A120U A145U C150G C169A U176G,0.00276
3,C82A A111G A120U A145U C150G C169A U176C,0.00338
4,C82A A111G A145C C150G,0.0325
5,C82A A111G A145C C150A,0.018
6,C82A A111G A145C C150U,0.0851
7,C82A A111G A120U C150U C169A U176A,0.00534
8,C82A A111G A120U C150U C169A U176C,0.00346
9,C82A A111G A120U C150U C169A U176G,0.00235
10,C82A A111G A120U A145U C150U C169A U176C,0.00235
11,C82A A111G A120U A145U C150U C169A U176G,0.00171
12,C82A A111G A120U A145U C150U C169A U176A,0.00237
13,C82A A111G A120U A145U C169A U176A,0.00218
14,C82A A111G A120U A145U C169A U176G,0.00145
15,C82A A111G A120U A145U C169A U176C,0.00249
16,C82A A111G A145C C150U U176G,0.0154
17,C82A A111G A145C C150U U176C,0.0542
18,C82A A111G A145C C150U U176A,0.0434
19,C82A A111G A145U C169A,0.00788
20,C82A A111G A145U C169U,0.0125
21,C82A A111G A145U C169G,0.00852

row,Variant,reverse-splicing fitness
1,C82A A111G A120U C150G C169A U176A,0.00738
2,C82A A111G A120U C150G C169A U176G,0.0031
3,C82A A111G A120U C150G C169A U176C,0.00609
4,C82A A111G A120U A145U U176A,0.00893
5,C82A A111G A120U A145U U176C,0.0146
6,C82A A111G A120U A145U U176G,0.00433
7,C82A A111G A120U C150G C169A,0.00678
8,C82A A111G A120U C150G C169G,0.00649
9,C82A A111G A120U C150G C169U,0.00601
10,C82A A111G A145G C150G U176A,0.00955
11,C82A A111G A145G C150G U176G,0.00721
12,C82A A111G A145G C150G U176C,0.0188
13,C82A A111G A145U C150G U176C,0.0181
14,C82A A111G A145U C150G U176A,0.00973
15,C82A A111G A145U C150G U176G,0.0047
16,C82A A111G A145U C169A U176C,0.0104
17,C82A A111G A145U C169A U176A,0.0131
18,C82A A111G A145U C169A U176G,0.00504
19,C82A A111G A120U C150A,0.00855
20,C82A A111G A120U C150G,0.00849
21,C82A A111G A120U C150U,0.0201

row,Variant,reverse-splicing fitness
1,C82A A111G A145G C150U C169A U176A,0.0167
2,C82A A111G A145G C150U C169A U176C,0.0181
3,C82A A111G A145G C150U C169A U176G,0.00696
4,C82A A111G A120U C150U C169U U176G,0.00221
5,C82A A111G A120U C150U C169U U176A,0.00475
6,C82A A111G A120U C150U C169U U176C,0.00428
7,C82A A111G A145G C150A C169A U176A,0.0216
8,C82A A111G A145G C150A C169A U176G,0.00749
9,C82A A111G A145G C150A C169A U176C,0.0215
10,C82A A111G A145U C150G C169A U176A,0.0104
11,C82A A111G A145U C150G C169A U176G,0.00684
12,C82A A111G A145U C150G C169A U176C,0.0104
13,C82A A111G C150G C169G U176C,0.00543
14,C82A A111G C150G C169G U176G,0.00592
15,C82A A111G C150G C169G U176A,0.00836
16,C82A A111G A145C C150A C169A U176G,0.00644
17,C82A A111G A145C C150A C169A U176C,0.00723
18,C82A A111G A145C C150A C169A U176A,0.0122
19,C82A A111G C150A C169A U176A,0.0203
20,C82A A111G C150A C169A U176G,0.0074
21,C82A A111G C150A C169A U176C,0.0218

row,Variant,reverse-splicing fitness
1,C82A A111G A145G C150U C169U U176A,0.0138
2,C82A A111G A145G C150U C169U U176C,0.0135
3,C82A A111G A145G C150U C169U U176G,0.00655
4,C82A A111G A145C C169A U176G,0.00582
5,C82A A111G A145C C169A U176C,0.00756
6,C82A A111G A145C C169A U176A,0.0123
7,C82A A111G A145C C150G C169U U176G,0.00568
8,C82A A111G A145C C150G C169U U176C,0.0106
9,C82A A111G A145C C150G C169U U176A,0.00799
10,C82A A111G A120U C169A U176C,0.00316
11,C82A A111G A120U C169A U176G,0.00152
12,C82A A111G A120U C169A U176A,0.00268
13,C82A A111G A145C C150A C169U U176C,0.00831
14,C82A A111G A145C C150A C169U U176G,0.00626
15,C82A A111G A145C C150A C169U U176A,0.0133
16,C82A A111G A145C C150U C169A,0.00814
17,C82A A111G A145C C150U C169U,0.0104
18,C82A A111G A145C C150U C169G,0.00745
19,C82A A111G A145C C150G C169G U176G,0.00649
20,C82A A111G A145C C150G C169G U176A,0.0093
21,C82A A111G A145C C150G C169G U176C,0.00679
